T1: IL-17A (UniProt Q16552 24-155)
T1 construct: also called Interleukin-17
T1 sequence (looked up): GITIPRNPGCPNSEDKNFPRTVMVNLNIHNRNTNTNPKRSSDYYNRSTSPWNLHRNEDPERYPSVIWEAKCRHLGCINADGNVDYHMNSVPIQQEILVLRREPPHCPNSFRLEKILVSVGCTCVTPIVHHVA

T2: hIL17-A (human, UniProt Q16552 24-155)
T2 construct: also called human IL-17A
T2 sequence (looked up): T1 sequence (looked up)

T3: hIL17-F (human, UniProt Q96PD4 31-163)
T3 construct: also called human IL-17F
T3 sequence (looked up): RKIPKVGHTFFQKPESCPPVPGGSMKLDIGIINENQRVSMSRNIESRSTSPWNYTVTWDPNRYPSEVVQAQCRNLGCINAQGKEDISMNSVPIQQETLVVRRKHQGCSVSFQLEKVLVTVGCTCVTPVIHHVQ

B1: BCY00008654 (peptide)
peptide: Ac-A[Dap(Me)]PQDLEL[Dap(Me)]TFLFGD[Dap(Me)]A
modifications: linker 2-9-16 via TBMB
notes: Bicyclic peptide on a TBMB scaffold; all three cysteines of BCY00008655 replaced by Dap(Me); also called Ac-(28-06)(TBMB) Cys123Dap(Me)
B2: BCY00008653 (peptide)
peptide: Ac-A[Dap(Me)]PQDLELCTFLFGD[Dap(Me)]A
modifications: linker 2-9-16 via TBMB
notes: Bicyclic peptide on a TBMB scaffold; first and third cysteines of BCY00008655 replaced by Dap(Me); also called Ac-(28-06)(TBMB) Cys13Dap(Me)
B3: BCY00008648 (peptide)
peptide: Ac-A[Dap(Me)]PQDLELCTFLFGDCA
modifications: linker 2-9-16 via TBMB
notes: Bicyclic peptide on a TBMB scaffold; first cysteine of BCY00008655 replaced by Dap(Me); also called Ac-(28-06)(TBMB) Cys1Dap(Me)
B4: BCY00008655 (peptide)
peptide: Ac-ACPQDLELCTFLFGDCA
modifications: linker 2-9-16 via TBMB
notes: Bicyclic peptide on a TBMB scaffold; also called Ac-(28-06)(TBMB)
B5: BCY00008649 (peptide)
peptide: Ac-ACPQDLEL[Dap(Me)]TFLFGDCA
modifications: linker 2-9-16 via TBMB
notes: Bicyclic peptide on a TBMB scaffold; second cysteine of BCY00008655 replaced by Dap(Me); also called Ac-(28-06)(TBMB) Cys2Dap(Me)
B6: BCY00008651 (peptide)
peptide: Ac-A[Dap(Me)]PQDLEL[Dap(Me)]TFLFGDCA
modifications: linker 2-9-16 via TBMB
notes: Bicyclic peptide on a TBMB scaffold; first and second cysteines of BCY00008655 replaced by Dap(Me); also called Ac-(28-06)(TBMB) Cys12Dap(Me)

Starred links: 1 amine or outer side, 2 acyl side, 3 side chain; linkers in the order of their positions; H or OH if unused. Positions of bridges follow the written chain, without caps; N, C: chain ends. Non-standard residues stand in square brackets, D forms with d. No end group written: not given here. TBMB = c1c(C[*:1])cc(C[*:3])cc1C[*:2]; Dap(Me) = CNC[C@H](N)C(=O)O

What is called Ki is a dissociation constant, usually derived from enzyme kinetics or from competition with a known ligand. Read a high Ki as weaker binding. The term Kd denotes the constant that tells how readily two partners part at equilibrium. A higher Kd goes with weaker binding.

One experiment deals with T1, IL-17A. Put plainly: IL-17A binding assay, method analogous to WO 2011/141823; mean of n1 and n2.
Molecule B1 showed a Ki of 94.7 nM. That is a double-digit nanomolar value.
On the same count and under the same terms, to B2 belongs 129 nM; to B3, 116 nM; to B4, 93 nM.
On to B5, for which the inhibition constant (Ki) was 60.2 nM.
B6: the affinity, expressed as Ki, was 264 nM.

A further experiment concerns the target T1, IL-17A. Nature of the experiment: IL-17A binding assay, method analogous to WO 2011/141823; replicate n2.
B1 returned an inhibitory constant (Ki) of 89.3 nM. In other words, the double-digit nanomolar range.
B2 showed an inhibition constant Ki of 85.9 nM.
Turning to B3, affinity was put at a Ki of 105 nM.
For the molecule B4, the affinity corresponds to a Ki of 107 nM.
On the same count and under the same terms, to B5 belongs 59.6 nM; to B6, 231 nM.

In another experiment the target is T2, hIL17-A. Nature of the experiment: IL-17 binding assay (Kd), as described in GB1720932.1.
In turn, CPENELYCFLSSQQC (linker 1-8-15 via TBMB) [Reference Example A2, CPENELYCFLSSQQC] came in with a dissociation constant Kd of 398 nM.

Another experiment has as its target T3, hIL17-F. The experiment is described as above.
Consider ACGYDYYCALYDICA (linker 2-8-14 via TBMB) [Reference Example A5, A-…-A], for which the Kd stood at 198 nM. That is a sub-micromolar value.
In turn, ACLWKDNCTHWSLCA (linker 2-8-14 via TBMB) [Reference Example A6, A-CLWKDNCTHWSLC-A] showed an equilibrium dissociation constant (Kd) of 392 nM.

The target of the next experiment is T1, IL-17A. Nature of the experiment: IL-17A binding assay, method analogous to WO 2011/141823; replicate n1.
The molecule B1 showed an inhibitory constant (Ki) of 100 nM.
Turning to B2, the affinity corresponds to a Ki of 173 nM. Compared with the last molecule, the Ki is about 1.7-fold higher.
B3 came in with a Ki of 127 nM.
On the same count and under the same terms, to B4 belongs 78.8 nM.
Still for that read-out and setting: to B5 belongs 60.8 nM; to B6, 298 nM.

The values above are taken from patent US20210122785A1 (Bicycle, published 2021).
